Data on one substance can be found in article PMC9860674.

For orientation: stoichiometry N means the number of molecules, sites or subunits per partner or assembly.

The assay concerns the target Tle3^AIEC (type VI lipase effector 3 of adherent-invasive Escherichia coli LF82) (Escherichia coli AIEC LF82). Put plainly: SEC; purified Tle3 and Tli3 mixed at a molar ratio of 1:1.3; Superdex 200 16/60 in Hepes 10 mM pH 6.8, NaCl 150 mM; apparent molecular mass 100 kDa against a theoretical 101.9 kDa. In general terms: Size exclusion chromatography separates by hydrodynamic size, large species first.

As to “Tli3^AIEC (type VI lipase immunity protein 3 of adherent-invasive Escherichia coli LF82) (natural protein)”, the stoichiometry N stood at 1.
